Measurements: publication PMC3166428

Target: GST-TRIP8b(1b-2) full
Assay: pull-down

fraction of loaded clathrin in the eluate (fraction of loaded clathrin): > 0.67
Substance: clathrin (from UniProt P11442 1-1675; P08081 1-248) (complex)
